Tests used:
Details in all cases: 20 nM; 72 h
MCF10A [1] = assay: one-nucleolus phenotype percent effect (relative to siNT 0% and siNOL11 100%); higher = more cells with one nucleolus (ribosome biogenesis inhibition)
Method: (§1)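 After 72 h, cells were fixed and stained with Hoechst and anti-fibrillarin, and nucleoli per nucleus were counted with CellProfiler. Values are plate-adjusted percent effect for the one-nucleolus and 5+ nucleoli phenotypes, normalised to siNT (0%) and to the positive controls siNOL11 or siKIF11 (100%), as the mean of biological triplicates. Percent viability is the nuclei count relative to siNT.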

MCF10A [2] = assay: 5+ nucleoli phenotype percent effect (relative to siNT 0% and siKIF11 100%); higher = more cells with five or more nucleoli
Method: as §1

MCF10A [3] = assay: percent viability (nuclei count relative to siNT); higher = more viable cells
Method: as §1

Sequence | one-nucleolus phenotype percent effect (MCF10A [1]) [%] | 5+ nucleoli phenotype percent effect (MCF10A [2]) [%] | percent viability (MCF10A [3]) [%]
AUGCUACUCGGAAAUCCCACUGA [hsa-miR-5089-3p] | 12.4 | -30.6 | 47.3
UCAGCUACUACCUCUAUUAGG [hsa-miR-5690] | -20.3 | 15.5 | 105
CUGGGAUCUCCGGGGUCUUGGUU [hsa-miR-769-3p] | 18 | -14.5 | 40.7
AACCCGUAGAUCCGAACUUGUG [hsa-miR-100-5p] | 9.92 | -0.958 | 45.1
AAAGUGCUUCCCUUUGGACUGU [hsa-miR-520a-3p] | -9.18 | 40.6 | 60.8
CUUCUGAUCAAGAUUUGUGGUG [hsa-miR-4762-3p] | 18.9 | -38.7 | 30.5
CCUAGAAACUGUAAACUUAGUC [hsa-miR-8067] | -35.3 | 47.4 | 108
UUUGUGACCUGGUCCACUAACC [hsa-miR-758-3p] | 35.1 | -42 | 52.5
CUGGCCUCUUCUUUCUCCUAG [hsa-miR-6878-3p] | -7.63 | 96 | 45.7
UCACACCUGCCUCGCCCCCC [hsa-miR-1228-3p] | 5.12 | -13.8 | 64.7
CAAAGCGCUCCCCUUUAGAGGU [hsa-miR-518b] | 61.9 | -39.6 | 27.8
UUUGGCACUAGCACAUUUUUGCU [hsa-miR-96-5p] | 19.4 | 16.6 | 28.4
UGUCUACAUUAAUGAAAAGAGC [hsa-miR-3618] | 16.7 | -1.03 | 66.2
AAAAGCUGGGCUGAGAGGCG [hsa-miR-4429] | 24.9 | -19.2 | 38.6
ACUCAAACUGUGGGGGCACU [hsa-miR-371a-5p] | 3.21 | 15.8 | 79.6
AAGACGGGAGGAAAGAAGGGAG [hsa-miR-483-5p] | 19.1 | -31.8 | 51.5
AGACUUCCCAUUUGAAGGUGGC [hsa-miR-617] | 43.9 | -37.8 | 43.8
UGGGCUGCUGAGAAGGGGCA [hsa-miR-6829-5p] | 37.7 | 2.03 | 7.58
CAGUGCAAUGUUUUCCUU [hsa-miR-4295] | -33 | 97.9 | 78.5
UGCGGGGCUAGGGCUAACAGCA [hsa-miR-744-5p] | 53.9 | -35.1 | 12

Sequence | one-nucleolus phenotype percent effect (MCF10A [1]) [%] | 5+ nucleoli phenotype percent effect (MCF10A [2]) [%] | percent viability (MCF10A [3]) [%]
CAGCGGAGCCUGGAGAGAAGG [hsa-miR-7846-3p] | 11.9 | -18.4 | 41.6
CGGGGAGAGAACGCAGUGACGU [hsa-miR-3175] | 5.01 | -3.98 | 33.4
UUCUGGAAUUCUGUGUGAGGGA [hsa-miR-1299] | 19.2 | -3.13 | 58.7
AGCUACAGUUACUUUUGCACCA [hsa-miR-548v] | -5.59 | -8.87 | 68.4
UUGAAGGGACAAGUCAGAUAUGCC [hsa-miR-6864-5p] | 17.8 | -1.47 | 25.6
UAUGGAGUGGACUUUCAGCUGGC [hsa-miR-6514-5p] | -0.808 | 38.3 | 75
AACUGAACCAGGAGUGAGCUUCG [hsa-miR-4724-5p] | 6.7 | -1.37 | 77.9
UUGCCAGGGCAGGAGGUGGAA [hsa-miR-5006-5p] | 0.389 | -13.7 | 69.9
CUAGUGAGGGACAGAACCAGGAUUC [hsa-miR-921] | 31.9 | -15.6 | 48.8
GCCCUGACCUGUCCUGUUCUG [hsa-miR-4732-3p] | -20.3 | 21.5 | 64.3
UACUUGGAAAGGCAUCAGUUG [hsa-miR-890] | 49.1 | -34.1 | 21
AUGGAGCUGGAACCAGAUCAGGC [hsa-miR-6874-5p] | 41.9 | -35.8 | 30.7
UACAGUACUGUGAUAACUGAA [hsa-miR-101-3p] | 11.6 | -26.5 | 86
AAAGGAUUCUGCUGUCGGUCCCACU [hsa-miR-541-5p] | 12.6 | -28.2 | 51.1
UCUGAGGUGGAACAGCAGC [hsa-miR-7162-3p] | 19.5 | -23 | 27.2
AUUGGGAACAUUUUGCAUGUAU [hsa-miR-450a-1-3p] | -29.7 | 24.1 | 95
AUGCGAGGAUGCUGACAGUG [hsa-miR-4737] | 35.7 | -33.6 | 28.3
CUCGGGAGGGCAUGGGCCAGGC [hsa-miR-6771-5p] | -0.506 | -1.93 | 50.5
GGAUAUCAUCAUAUACUGUAAG [hsa-miR-144-5p] | -0.41 | 2.47 | 54.5
AGGCGAUGUGGGGAUGUAGAGA [hsa-miR-6717-5p] | 19.4 | -15.8 | 30.5

Sequence | one-nucleolus phenotype percent effect (MCF10A [1]) [%] | 5+ nucleoli phenotype percent effect (MCF10A [2]) [%] | percent viability (MCF10A [3]) [%]
CACCAGGCAUUGUGGUCUCC [hsa-miR-1911-3p] | 26.3 | -9.8 | 45
GACAUUCAGACUACCUG [hsa-miR-4262] | 6.49 | -5.77 | 86.4
GAAUCGGAAAGGAGGCGCCG [hsa-miR-3610] | -7.32 | 19.9 | 93.4
CAGCCACAACUACCCUGCCACU [hsa-miR-449b-3p] | -5.19 | 1.67 | 71.9
AAAGUGCAUCCUUUUAGAGGUU [hsa-miR-519b-3p] | -24 | 75.9 | 104
UGAGUACCGCCAUGUCUGUUGGG [hsa-miR-1911-5p] | -20.9 | 17.2 | 108
CUACAGGCUGGAAUGGGCUCA [hsa-miR-7151-3p] | 13.6 | 2.37 | 20.6
AGCCCCUGCCCACCGCACACUG [hsa-miR-210-5p] | -21 | 53 | 101
ACUGGCCUGGGACUACCGG [hsa-miR-3176] | -13.2 | 35.3 | 54.4
AGGUUGUCCGUGUUGUCUUCUCU [hsa-miR-494-5p] | 3.91 | 18.5 | 22.3
ACCUUCUUGUAUAAGCACUGUGCUAAA [hsa-miR-1248] | -15.4 | 33.1 | 96.5
AGGGACCUGAGUGUCUAAG [hsa-miR-3649] | 9.08 | -0.628 | 71
GGGGCCUGGCGGUGGGCGG [hsa-miR-2861] | -37.2 | 87.4 | 80.1
UCUGAGUUCCUGGAGCCUGGUCU [hsa-miR-4682] | -20 | 18.8 | 104
AUAAUACAACCUGCUAAGUGCU [hsa-miR-374c-5p] | 26.4 | -36.9 | 45.3
UACCCUGUAGAACCGAAUUUGUG [hsa-miR-10b-5p] | 25.8 | -26.1 | 30.6
UUGGAGGGUGUGGAAGACAUC [hsa-miR-6515-5p] | 40.1 | -18.5 | 19
UUCAUUCGGCUGUCCAGAUGUA [hsa-miR-1298] | -24.3 | 33.4 | 130
UUACACAGCUGGACAGAGGCA [hsa-miR-4672] | 38.5 | -34 | 17.6

Source: the supplement of paper PMC10899765
